Data as given in the supplement of paper PMC9233669.
Fewer inactive variants are shown than the library holds.

What was measured:
biotinyl-Leu-oxazolone = assay: self-aminoacylation, catalytic enhancement (BLO) (fold over background); higher = more active; k-Seq, kA / k0A0; sequences stand for … in GGGAAUGGAUCCACAUCUACGAAUUC…UUCACUGCAGACUUGACGAAGCUG
Procedure, shortened: (§1)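 Mutagenized RNA pools with a 21-nt variable region (0.43 μM) reacted with each biotinyl-aminoacyl-oxazolone at 2–1250 μM. Reactions ran in 50 μL HEPES/NaCl/KCl/MgCl2/CaCl2 buffer with 5% acetonitrile, pH 6.9–7.0, for 90 minutes at room temperature. Streptavidin-captured RNA was quantified by triplicate qPCR and Illumina sequencing, and per-sequence fraction reacted was fit to a pseudo-first-order model with 1000 bootstraps. Catalytic enhancement is median kA divided by the uncatalyzed rate, the low-activity peak of a bimodal Gaussian fit.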

biotinyl-Val-oxazolone = assay: self-aminoacylation, catalytic enhancement (BVO) (fold over background); higher = more active; k-Seq, kA / k0A0; sequences stand for … in GGGAAUGGAUCCACAUCUACGAAUUC…UUCACUGCAGACUUGACGAAGCUG
Procedure, shortened: as §1

biotinyl-Met-oxazolone = assay: self-aminoacylation, catalytic enhancement (BMO) (fold over background); higher = more active; k-Seq, kA / k0A0; sequences stand for … in GGGAAUGGAUCCACAUCUACGAAUUC…UUCACUGCAGACUUGACGAAGCUG
Procedure, shortened: as §1

biotinyl-Phe-oxazolone = assay: self-aminoacylation, catalytic enhancement (BFO) (fold over background); higher = more active; k-Seq, kA / k0A0; sequences stand for … in GGGAAUGGAUCCACAUCUACGAAUUC…UUCACUGCAGACUUGACGAAGCUG
Procedure, shortened: as §1

biotinyl-Ile-oxazolone = assay: self-aminoacylation, catalytic enhancement (BIO) (fold over background); higher = more active; k-Seq, kA / k0A0; sequences stand for … in GGGAAUGGAUCCACAUCUACGAAUUC…UUCACUGCAGACUUGACGAAGCUG
Procedure, shortened: as §1

biotinyl-Trp-oxazolone = assay: self-aminoacylation, catalytic enhancement (BWO) (fold over background); higher = more active; k-Seq, kA / k0A0; sequences stand for … in GGGAAUGGAUCCACAUCUACGAAUUC…UUCACUGCAGACUUGACGAAGCUG
Procedure, shortened: as §1

Row | Sequence | self-aminoacylation (biotinyl-Leu-oxazolone) | self-aminoacylation (biotinyl-Val-oxazolone) | self-aminoacylation (biotinyl-Met-oxazolone) | self-aminoacylation (biotinyl-Phe-oxazolone) | self-aminoacylation (biotinyl-Ile-oxazolone) | self-aminoacylation (biotinyl-Trp-oxazolone)
1 | AUUACCCUCGUCAACGAGUGA [Fam2.1 aminoacylation ribozyme variant] | 3 | 2.06 | 3.05 | 5.53 | 1.89 | 2.82
2 | AUUACCCUCGUCAUCGAGUAA [Fam2.1 aminoacylation ribozyme variant] | 0.985 | 1.02 | 0.866 | 0.716 | 0.904 | 0.978
3 | AUUACCCUCGUCAUCGCGUGA [Fam2.1 aminoacylation ribozyme variant] | 6.51 | 4.02 | 6.01 | 51.9 | 3.63 | 6.81
4 | AUUACCCUCGUGAUCGAGUGA [Fam2.1 aminoacylation ribozyme variant] | 11.6 | 4.09 | 10.4 | 70.3 | 4.47 | 10.8
5 | AUUACCCUGAACAUCGAGUGA [Fam2.1 aminoacylation ribozyme variant] | 6.97 | 3.35 | 6.65 | 24.2 | 3.4 | 8.05
6 | AUUACCCUGAUCAUCCAGUGA [Fam2.1 aminoacylation ribozyme variant] | 5.22 | 3.49 | 5.79 | 16.9 | 2.91 | 7.09
7 | AUUACCCUGAUCAUCGAGUGG [Fam2.1 aminoacylation ribozyme variant] | 2.42 | 1.62 | 2.82 | 2.77 | 1.52 | 2.13
8 | AUUACCCUGAUCAUUGAGUGA [Fam2.1 aminoacylation ribozyme variant] | 12.2 | 5.87 | 12.9 | 68.4 | 5.87 | 15.6
9 | AUUACCCUGAUGAUCGAGUGA [Fam2.1 aminoacylation ribozyme variant] | 13 | 5.25 | 12.7 | 79.7 | 5.5 | 14.4
10 | AUUACCCUGCUCAUCCAGUGA [Fam2.1 aminoacylation ribozyme variant] | 6.26 | 3.34 | 5.54 | 34.2 | 3.06 | 7.43
11 | AUUACCCUGCUCAUCGAGCGA [Fam2.1 aminoacylation ribozyme variant] | 1.4 | 0.851 | 1.3 | 0.874 | 1.12 | 0.81
12 | AUUACCCUGCUCAUCGAGUCA [Fam2.1 aminoacylation ribozyme variant] | 0.646 | 0.819 | 0.64 | 0.452 | 0.779 | 0.425
13 | AUUACCCUGCUCAUCGCGUGA [Fam2.1 aminoacylation ribozyme variant] | 16.4 | 7.29 | 17.1 | 152 | 7.11 | 16.9
14 | AUUACCCUGCUCAUCUAGUGA [Fam2.1 aminoacylation ribozyme variant] | 6.75 | 3.3 | 6.35 | 29.8 | 2.97 | 8.05
15 | AUUACCCUGCUGAUCGAGUGA [Fam2.1 aminoacylation ribozyme variant] | 2.87 | 1.67 | 2.68 | 10.4 | 1.93 | 2.77
16 | AUUACCCUGGACAUCCAGUGA [Fam2.1 aminoacylation ribozyme variant] | 3.82 | 2.51 | 3.32 | 15.9 | 2.61 | 4.13
17 | AUUACCCUGGACAUCGACUGA [Fam2.1 aminoacylation ribozyme variant] | 0.529 | 0.626 | 0.616 | 0.713 | 0.543 | 0.238
18 | AUUACCCUGGACAUCGAGGGA [Fam2.1 aminoacylation ribozyme variant] | 1.46 | 1.19 | 2.18 | 1.26 | 1.53 | 2.17
19 | AUUACCCUGGACAUCGAUUGA [Fam2.1 aminoacylation ribozyme variant] | 0.831 | 0.863 | 0.785 | 0.447 | 0.804 | 0.675
20 | AUUACCCUGGACAUCUAGUGA [Fam2.1 aminoacylation ribozyme variant] | 5.12 | 2.71 | 5.4 | 17 | 2.55 | 5.51
21 | AUUACCCUGGCAAUCGAGUGA [Fam2.1 aminoacylation ribozyme variant] | 5.38 | 3.02 | 4.83 | 28.2 | 2.78 | 5.92
22 | AUUACCCUGGCCAGCGAGUGA [Fam2.1 aminoacylation ribozyme variant] | 4.29 | 3.29 | 5 | 18 | 2.73 | 4.9
23 | AUUACCCUGGCCAUCGAGAGA [Fam2.1 aminoacylation ribozyme variant] | 0.919 | 1.01 | 1.02 | 0.439 | 0.69 | 0.803
24 | AUUACCCUGGCCAUCGAGUCA [Fam2.1 aminoacylation ribozyme variant] | 0.727 | 0.826 | 0.714 | 0.47 | 0.78 | 0.66
25 | AUUACCCUGGCCAUCUAGUGA [Fam2.1 aminoacylation ribozyme variant] | 5.69 | 2.79 | 4.68 | 28.6 | 2.93 | 4.43
26 | AUUACCCUGGCCAUGGAGUGA [Fam2.1 aminoacylation ribozyme variant] | 4.12 | 2.79 | 4.45 | 19.7 | 3.24 | 5.9

Row | Sequence | self-aminoacylation (biotinyl-Leu-oxazolone) | self-aminoacylation (biotinyl-Val-oxazolone) | self-aminoacylation (biotinyl-Met-oxazolone) | self-aminoacylation (biotinyl-Phe-oxazolone) | self-aminoacylation (biotinyl-Ile-oxazolone) | self-aminoacylation (biotinyl-Trp-oxazolone)
27 | AUUACCCUGGCGAUCGAGUGA [Fam2.1 aminoacylation ribozyme variant] | 4.77 | 2.69 | 4.06 | 24.3 | 2.12 | 4.59
28 | AUUACCCUGGGCACCGAGUGA [Fam2.1 aminoacylation ribozyme variant] | 6.68 | 2.84 | 6.11 | 37.9 | 3.37 | 5.46
29 | AUUACCCUGGGCAUCCAGUGA [Fam2.1 aminoacylation ribozyme variant] | 8.87 | 3.83 | 8.06 | 50.6 | 3.76 | 7.23
30 | AUUACCCUGGGCAUCGAAUGA [Fam2.1 aminoacylation ribozyme variant] | 0.912 | 0.934 | 0.647 | 1.14 | 0.945 | 2.01
31 | AUUACCCUGGGCAUCGCGUGA [Fam2.1 aminoacylation ribozyme variant] | 9.41 | 5.38 | 6.98 | 48.7 | 3.74 | 7.7
32 | AUUACCCUGGUAAUCCAGUGA [Fam2.1 aminoacylation ribozyme variant] | 8.77 | 4.36 | 8.47 | 51.9 | 4.07 | 10.7
33 | AUUACCCUGGUAAUCGGGUGA [Fam2.1 aminoacylation ribozyme variant] | 13.1 | 4.83 | 12.4 | 86.9 | 4.26 | 12.1
34 | AUUACCCUGGUAAUUGAGUGA [Fam2.1 aminoacylation ribozyme variant] | 17.1 | 6.33 | 16.2 | 117 | 6.96 | 19.2
35 | AUUACCCUGGUCAACCAGUGA [Fam2.1 aminoacylation ribozyme variant] | 6.76 | 3.78 | 6.42 | 39.2 | 3.9 | 7.15
36 | AUUACCCUGGUCAACGAGGGA [Fam2.1 aminoacylation ribozyme variant] | 1.85 | 1.56 | 1.49 | 1.26 | 1.49 | 2.56
37 | AUUACCCUGGUCAACGAGUCA [Fam2.1 aminoacylation ribozyme variant] | 0.745 | 0.969 | 1.05 | 0.683 | 1.14 | 0.482
38 | AUUACCCUGGUCAACGAGUGG [Fam2.1 aminoacylation ribozyme variant] | 1.38 | 1.09 | 1.49 | 2.19 | 1.04 | 1.78
39 | AUUACCCUGGUCACAGAGUGA [Fam2.1 aminoacylation ribozyme variant] | 10.9 | 4.01 | 8.95 | 54.1 | 4.39 | 9.52
40 | AUUACCCUGGUCACCGAAUGA [Fam2.1 aminoacylation ribozyme variant] | 1.31 | 1.15 | 1.22 | 0.595 | 0.992 | 0.91
41 | AUUACCCUGGUCACCGAGUGA [Fam2.1 aminoacylation ribozyme variant] | 9.26 | 4.25 | 8.44 | 51.3 | 3.9 | 9.22
42 | AUUACCCUGGUCACCGAGUGG [Fam2.1 aminoacylation ribozyme variant] | 3.56 | 2.08 | 2.6 | 7.88 | 1.57 | 3.23
43 | AUUACCCUGGUCACCGAGUGU [Fam2.1 aminoacylation ribozyme variant] | 5.37 | 2.55 | 4.97 | 16.6 | 2.65 | 5.42
44 | AUUACCCUGGUCACUGAGUGA [Fam2.1 aminoacylation ribozyme variant] | 3.91 | 2.75 | 3.91 | 10.5 | 2.75 | 4.62
45 | AUUACCCUGGUCAGCAAGUGA [Fam2.1 aminoacylation ribozyme variant] | 4 | 2.61 | 4.16 | 9.67 | 2.95 | 4.8
46 | AUUACCCUGGUCAGCCAGUGA [Fam2.1 aminoacylation ribozyme variant] | 10.6 | 5.21 | 9.13 | 46.3 | 5.41 | 11
47 | AUUACCCUGGUCAGCGAGUGA [Fam2.1 aminoacylation ribozyme variant] | 4.71 | 3.01 | 4.42 | 16.6 | 2.92 | 5.36
48 | AUUACCCUGGUCAGCGAGUGU [Fam2.1 aminoacylation ribozyme variant] | 3.85 | 2.41 | 3.7 | 15.4 | 2.49 | 4.47
49 | AUUACCCUGGUCAUACAGUGA [Fam2.1 aminoacylation ribozyme variant] | 4.57 | 3.03 | 4.03 | 14.8 | 2.91 | 5.95
50 | AUUACCCUGGUCAUAGCGUGA [Fam2.1 aminoacylation ribozyme variant] | 9.18 | 4.99 | 8.87 | 51.8 | 4.12 | 10.6
51 | AUUACCCUGGUCAUAGUGUGA [Fam2.1 aminoacylation ribozyme variant] | 0.978 | 0.977 | 1.12 | 0.987 | 0.955 | 0.799
